Test results from paper PMC10971408.
“And” between values parts separate entries of the source, which are not always exact repeats. Identical values can stand only once.

Biological target: Cys101 (UniProt position 101, YVTSVCTGSLV)
Test: crystallography
Settings: data collected at 100 K; crystals grown at 20°C; 200 mM MgCl2 in reservoir; 100 mM tris-HCl (pH 8.3), sodium citrate (pH 6.0), or sodium acetate (pH 4.2, 5.0, 5.4); 23% PEG 3350, 2 mM DTT; substrate-free wild-type enzyme in crystals, reduced Cys101 (DTT present)

## Isocyanide hydratase (ICH, PfICH) (Pseudomonas fluorescens)
  pKa: 5.7 and 5 to 6
